Molecular target: tdPCP-GFP-VPR (PP7 (from the protein's name) | not stated)
Assay: fluorescence intensity at the reporter gene array in cells

## tdPCP-GFP-VPR
  fold signal at the reporter array against tdPCP-GFP-VP16: 1.9 fold
